Measured values: patent US20180044393A1 (INSERM INSTITUT NATIONAL DE LA SANT ET DE LA RECHERCHE M …, published 2018)
Where a chain is given by its changes, count along the chain named. Positions of bridges follow the written chain, without caps; N, C: chain ends. No end group written: not given here. *: point of attachment. 125I = [125I]*

What was measured:
Test in all cases: 125I-OxA binding on CHO-S cells expressing the OX1R mutant
OX1R N318A = biological target: T1, OX1R N318A (human, UniProt O43613 1-425)
T1 construct: site-directed mutant (TM6) stably expressed in CHO-S cells; not shown: YFP from vector pEYFP-N2 fused at the C-terminus
T1 chain: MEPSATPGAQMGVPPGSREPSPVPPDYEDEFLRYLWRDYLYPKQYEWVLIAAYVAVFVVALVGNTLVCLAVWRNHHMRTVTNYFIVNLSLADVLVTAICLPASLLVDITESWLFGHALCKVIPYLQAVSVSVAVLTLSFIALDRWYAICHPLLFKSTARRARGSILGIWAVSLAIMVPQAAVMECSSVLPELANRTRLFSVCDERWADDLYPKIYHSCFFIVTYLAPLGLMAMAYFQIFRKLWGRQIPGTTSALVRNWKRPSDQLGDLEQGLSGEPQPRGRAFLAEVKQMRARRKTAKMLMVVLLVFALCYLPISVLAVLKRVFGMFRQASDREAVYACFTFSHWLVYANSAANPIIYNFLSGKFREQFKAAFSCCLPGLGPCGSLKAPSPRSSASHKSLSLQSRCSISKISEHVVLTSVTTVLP
Experimental: (§1) CHO—S cells expressing recombinant native or mutated OX1R were grown as previously described (El Firar et al., 2009) and maintained at 37° C. in a humidified 5% CO₂/air incubator. ¹²⁵I-orexia-A (74 TBq/mmol) was prepared as previously described (El Firar et al., 2009). […] Free peptides were removed by 2 cell washing cycles with PBS. […] Data were analyzed using the GraphPad software (http://www.graphpad.com).
(§2) All residues of OX1R fulfilling this condition were mutated to alanine by site-directed mutagenesis (Table II).

OX1R V319A = biological target: T2, OX1R V319A (human, UniProt O43613 1-425)
T2 construct: site-directed mutant (TM6) stably expressed in CHO-S cells; not shown: YFP from vector pEYFP-N2 fused at the C-terminus
T2 chain: T1 chain with A318N, V319A
Experimental: as §1, §2

OX1R F220A = biological target: T3, OX1R F220A (human, UniProt O43613 1-425)
T3 construct: site-directed mutant (TM5) stably expressed in CHO-S cells; not shown: YFP from vector pEYFP-N2 fused at the C-terminus
T3 chain: T1 chain with F220A, A318N
Experimental: as §1, §2

OX1R L320A = biological target: T4, OX1R L320A (human, UniProt O43613 1-425)
T4 construct: site-directed mutant (TM6) stably expressed in CHO-S cells; not shown: YFP from vector pEYFP-N2 fused at the C-terminus
T4 chain: T1 chain with A318N, L320A
Experimental: as §1, §2

Measured: binding result

B1: 125I-orexin-A (peptide, UniProt O43612 34-66, looked up)
peptide: QPLPDCCRQKTCSCRLY(125I)ELLHGAGNHAAGILTL
modifications: disulfide 6-12, 7-14; not fully specified (residue 1, C-terminus)
notes: mature; also called OxA
binds: all assays above
